What was measured:
Type in all cases: physicochemical
Subtilisin1 [1] = target: T1, Subtilisin1 (Lederbergia lenta, UniProt P29600, M216S); test: Residual activity of Subtilisin1 after storage in peroxide model detergents with or without subtilisin stabilizers (N,N-dimethylcasein/TNBS)
Source text: Chemicals used as buffers and substrates were commercial products of at least reagent grade. Subtilisin1 has the amino acid sequence as shown in SEQ ID NO: 2, which is a subtilisin having a M216 substitution according to the invention. Subtilisin2 has the amino acid sequence as shown in SEQ ID NO: 1, which is a reference subtilisin not covered by the invention. The stock solution of each subtilisin contains 4.4% w/w of active enzyme protein. Stabilizer1: Cbz-Gly-Ala-Tyr-H (C-terminal aldehyde), wherein Cbz is benzyloxycarbonyl; which is a subtilisin stabilizer according to the invention. When used in the examples below, Stabilizer1 was added to the subtilisin stock solution at a concentration of 0.28% w/w. Stabilizer2: Cbz-Gly-Ala-NHCH(CH2C6H4pOH)CH(OH)(OSO3)Na (hydrosulfite adduct of a C-terminal aldehyde) wherein Cbz is benzyloxycarbonyl; which is a subtilisin stabilizer according to the invention. When used in the examples below, Stabilizer2 was added to the subtilisin stock solution at a concentration of 0.35% w/w. Stabilizer3: MeOCO-Val-Ala-Leu-H (C-terminal aldehyde). When used in the examples below, Stabilizer3 was added to the subtilisin stock solution at a concentration of 0.28% w/w. Stabilizer4: 4-formyl-phenyl-boronic acid (4-FPBA); which is a reference protease stabilizer not covered by the invention. When used in the examples below, Stabilizer4 was added to the subtilisin stock solution at a concentration of 3.4% w/w.
(§1) The compositions were prepared as shown in the examples and samples stored in closed vials for storage. Residual activity was measured by comparing activity in a stored sample at the time of taken out of incubation without freezing and comparing activity to a freshly prepared sample without peroxide and dividing activity in the stored sample with activity in the fresh sample.
(§2) Activity analysis is performed by analysing protease activity by hydrolysis of N,N-dimethylcasein to produce a carboxylic acid and a primary amine compounds. The primary amines that are formed react, under alkaline conditions, with tri-nitrobenzenesulfonic acid (TNBS) to form a colored complex. The amount of colored complex that forms over the fixed reaction period at a constant temperature (530 seconds at 40° C.; complex absorbance is measured at 405 nm) is related to the amount of active protease present in the sample. The amount of colored product complex produced is compared to a standard curve based on known protease concentrations to calculate the amount of active protease in the detergent sample. The amount of protease activity at a specific time point is compared to the t=0 activity level to calculate the % active protease remaining.
This study examined Subtilisin1 stability in the presence of hydrogen peroxide, with and without subtilisin stabilizers (Stabilizer4 and Stabilizer2) in two different model detergents at pH 7 and 9.

[2] = Residual hydrogen peroxide after storage, permanganate titration
Description: Residual hydrogen peroxide (H2O2) was measured by permanganate titration (reduction of potassium permanganate by hydrogen peroxide in sulfuric acid).

Subtilisin1 [3] = target: T1, Subtilisin1; test: Residual activity of Subtilisin1 after storage in peroxide model detergents with or without subtilisin stabilizers (N,N-dimethylcasein/TNBS); remark: listed apart in the source
[4] = Stability of Subtilisin1 and Subtilisin2 in the liquid peroxide composition of Table 1 (residual protease activity, N,N-dimethylcasein/TNBS); details: for % Subtilisin residual activity after 4 weeks: liquid peroxide composition in Table 1 (0.8% H2O2, pH 7.0)
Description: as §1, §2

B1: Subtilisin1: subtilisin with amino acid sequence SEQ ID NO: 2, having a M216 substitution according to the invention (protein)
chain: AQSVPWGISRVQAPAAHNRGLTGSGVKVAVLDTGISTHPDLNIRGGASFVPGEPSTQDGNGHGTHVAGTIAALNNSIGVLGVAPSAELYAVKVLGASGSGSVSSIAQGLEWAGNNGMHVANLSLGSPSPSATLEQAVNSATSRGVLVVAASGNSGAGSISYPARYANAMAVGATDQNNNRASFSQYGAGLDIVAPGVNVQSTYPGSTYASLNGTSSATPHVAGAAALVKQKNPSWSNVQIRNHLKNTATSLGSTNLYGSGLVNAEAATR
modifications: Variant of SEQ ID NO 1
- Residual activity of Subtilisin1 after storage (Subtilisin1 [1]; liquid nonionic laundry detergent in Table 7 (1.0% H2O2), 22° C., pH 7): 63%
- Residual activity of Subtilisin1 after storage (Subtilisin1 [1]; liquid nonionic laundry detergent in Table 7 (1.0% H2O2), 22° C., pH 9): 75%
- Residual activity of Subtilisin1 after storage (Subtilisin1 [1]; liquid nonionic laundry detergent in Table 7 (1.0% H2O2), 30° C., pH 7): 47%
- Residual activity of Subtilisin1 after storage (Subtilisin1 [1]; liquid nonionic laundry detergent in Table 7 (1.0% H2O2), 30° C., pH 9): 68%
- Residual activity of Subtilisin1 after storage (Subtilisin1 [1]; liquid nonionic laundry detergent in Table 7 (1.0% H2O2), 37° C., pH 7): 30%
- Residual activity of Subtilisin1 after storage (Subtilisin1 [1]; liquid nonionic laundry detergent in Table 7 (1.0% H2O2), 37° C., pH 9): 45%
- Residual activity of Subtilisin1 after storage (Subtilisin1 [1]; liquid nonionic pretreatment detergent in Table 4 (1.0% H2O2), 22° C., pH 7): 85%
- Residual activity of Subtilisin1 after storage (Subtilisin1 [1]; liquid nonionic pretreatment detergent in Table 4 (1.0% H2O2), 22° C., pH 9): 40%
- Residual activity of Subtilisin1 after storage (Subtilisin1 [1]; liquid nonionic pretreatment detergent in Table 4 (1.0% H2O2), 30° C., pH 7): 65%
- Residual activity of Subtilisin1 after storage (Subtilisin1 [1]; liquid nonionic pretreatment detergent in Table 4 (1.0% H2O2), 30° C., pH 9): 19%
- Residual activity of Subtilisin1 after storage (Subtilisin1 [1]; liquid nonionic pretreatment detergent in Table 4 (1.0% H2O2), 37° C., pH 7): 44%
- Residual activity of Subtilisin1 after storage (Subtilisin1 [1]; liquid nonionic pretreatment detergent in Table 4 (1.0% H2O2), 37° C., pH 9): 12%
- Residual activity of Subtilisin1 after storage (Subtilisin1 [1]; liquid nonionic/anionic laundry detergent in Table 13 (1.0% H2O2), 22° C., pH 7): 84%
- Residual activity of Subtilisin1 after storage (Subtilisin1 [1]; liquid nonionic/anionic laundry detergent in Table 13 (1.0% H2O2), 22° C., pH 9): 63%
- Residual activity of Subtilisin1 after storage (Subtilisin1 [1]; liquid nonionic/anionic laundry detergent in Table 13 (1.0% H2O2), 30° C., pH 7): 62%
- Residual activity of Subtilisin1 after storage (Subtilisin1 [1]; liquid nonionic/anionic laundry detergent in Table 13 (1.0% H2O2), 30° C., pH 9): 34%
- Residual activity of Subtilisin1 after storage (Subtilisin1 [1]; liquid nonionic/anionic laundry detergent in Table 13 (1.0% H2O2), 37° C., pH 7): 40%
- Residual activity of Subtilisin1 after storage (Subtilisin1 [1]; liquid nonionic/anionic laundry detergent in Table 13 (1.0% H2O2), 37° C., pH 9): 23%
- Residual activity of Subtilisin1 after storage (Subtilisin1 [1]; liquid nonionic/anionic pretreatment detergent in Table 10 (1.0% H2O2), 22° C., pH 7): 79%
- Residual activity of Subtilisin1 after storage (Subtilisin1 [1]; liquid nonionic/anionic pretreatment detergent in Table 10 (1.0% H2O2), 22° C., pH 9): 57%
- Residual activity of Subtilisin1 after storage (Subtilisin1 [1]; liquid nonionic/anionic pretreatment detergent in Table 10 (1.0% H2O2), 30° C., pH 7): 66%
- Residual activity of Subtilisin1 after storage (Subtilisin1 [1]; liquid nonionic/anionic pretreatment detergent in Table 10 (1.0% H2O2), 30° C., pH 9): 47%
- Residual activity of Subtilisin1 after storage (Subtilisin1 [1]; liquid nonionic/anionic pretreatment detergent in Table 10 (1.0% H2O2), 37° C., pH 7): 52%
- Residual activity of Subtilisin1 after storage (Subtilisin1 [1]; liquid nonionic/anionic pretreatment detergent in Table 10 (1.0% H2O2), 37° C., pH 9): 29%
- Residual activity of Subtilisin1 after storage (Subtilisin1 [1]; liquid nonionic/anionic pretreatment detergent in Table 16 (2.0% H2O2), 22° C., pH 7): 85%
- Residual activity of Subtilisin1 after storage (Subtilisin1 [1]; liquid nonionic/anionic pretreatment detergent in Table 16 (2.0% H2O2), 22° C., pH 9): 30%
- Residual activity of Subtilisin1 after storage (Subtilisin1 [1]; liquid nonionic/anionic pretreatment detergent in Table 16 (2.0% H2O2), 30° C., pH 7): 69%
- Residual activity of Subtilisin1 after storage (Subtilisin1 [1]; liquid nonionic/anionic pretreatment detergent in Table 16 (2.0% H2O2), 30° C., pH 9): 12%
- Residual activity of Subtilisin1 after storage (Subtilisin1 [1]; liquid nonionic/anionic pretreatment detergent in Table 16 (2.0% H2O2), 37° C., pH 7): 50%
- Residual activity of Subtilisin1 after storage (Subtilisin1 [1]; liquid nonionic/anionic pretreatment detergent in Table 16 (2.0% H2O2), 37° C., pH 9): 5%
- Residual H2O2 after 4 weeks ([2]; liquid peroxide composition in Table 1, 22° C.): 99.0%
- Residual H2O2 after 4 weeks ([2]; liquid peroxide composition in Table 1, 30° C.): 98.7%
- Residual H2O2 after 4 weeks ([2]; liquid peroxide composition in Table 1, 37° C.): 97.8%
- Residual H2O2 (after storage) ([2]; nonionic laundry detergent in Table 7, relative to initially added H2O2 = 1%, 22° C., pH 7): 95%
- Residual H2O2 (after storage) ([2]; nonionic laundry detergent in Table 7, relative to initially added H2O2 = 1%, 22° C., pH 9): 95%
- Residual H2O2 (after storage) ([2]; nonionic laundry detergent in Table 7, relative to initially added H2O2 = 1%, 30° C., pH 7): 94%
- Residual H2O2 (after storage) ([2]; nonionic laundry detergent in Table 7, relative to initially added H2O2 = 1%, 30° C., pH 9): 94%
- Residual H2O2 (after storage) ([2]; nonionic laundry detergent in Table 7, relative to initially added H2O2 = 1%, 37° C., pH 7): 92%
- Residual H2O2 (after storage) ([2]; nonionic laundry detergent in Table 7, relative to initially added H2O2 = 1%, 37° C., pH 9): 91%
- Residual H2O2 (after storage) ([2]; nonionic pretreatment detergent in Table 4, relative to initially added H2O2 = 1%, 22° C., pH 7): ≥100%
- Residual H2O2 (after storage) ([2]; nonionic pretreatment detergent in Table 4, relative to initially added H2O2 = 1%, 22° C., pH 9): 93%
- Residual H2O2 (after storage) ([2]; nonionic pretreatment detergent in Table 4, relative to initially added H2O2 = 1%, 30° C., pH 7): ≥100%
- Residual H2O2 (after storage) ([2]; nonionic pretreatment detergent in Table 4, relative to initially added H2O2 = 1%, 30° C., pH 9): 91%
- Residual H2O2 (after storage) ([2]; nonionic pretreatment detergent in Table 4, relative to initially added H2O2 = 1%, 37° C., pH 7): ≥100%
- Residual H2O2 (after storage) ([2]; nonionic pretreatment detergent in Table 4, relative to initially added H2O2 = 1%, 37° C., pH 9): 90%
- Residual H2O2 (after storage) ([2]; nonionic/anionic laundry detergent in Table 13, relative to initially added H2O2 = 1%, 22° C., pH 7): 101%
- Residual H2O2 (after storage) ([2]; nonionic/anionic laundry detergent in Table 13, relative to initially added H2O2 = 1%, 22° C., pH 9): 95%
- Residual H2O2 (after storage) ([2]; nonionic/anionic laundry detergent in Table 13, relative to initially added H2O2 = 1%, 30° C., pH 7): 99%
- Residual H2O2 (after storage) ([2]; nonionic/anionic laundry detergent in Table 13, relative to initially added H2O2 = 1%, 30° C., pH 9): 92%
- Residual H2O2 (after storage) ([2]; nonionic/anionic laundry detergent in Table 13, relative to initially added H2O2 = 1%, 37° C., pH 7): 101%
- Residual H2O2 (after storage) ([2]; nonionic/anionic laundry detergent in Table 13, relative to initially added H2O2 = 1%, 37° C., pH 9): 97%
- Residual H2O2 (after storage) ([2]; nonionic/anionic pretreatment detergent in Table 10, relative to initially added H2O2 = 1%, 22° C., pH 7): 88%
- Residual H2O2 (after storage) ([2]; nonionic/anionic pretreatment detergent in Table 10, relative to initially added H2O2 = 1%, 30° C., pH 7): 86%
- Residual H2O2 (after storage) ([2]; nonionic/anionic pretreatment detergent in Table 10, relative to initially added H2O2 = 1%, 37° C., pH 7): 100%
- Residual H2O2 (after storage) ([2]; nonionic/anionic pretreatment detergent in Table 10, relative to initially added H2O2 = 1%, 37° C., pH 9): 95%
- Residual H2O2 (after storage) ([2]; nonionic/anionic pretreatment detergent in Table 16, relative to initially added H2O2 = 2%, 22° C., pH 7): 87%
- Residual H2O2 (after storage) ([2]; nonionic/anionic pretreatment detergent in Table 16, relative to initially added H2O2 = 2%, 30° C., pH 7): 84%
- Residual H2O2 (after storage) ([2]; nonionic/anionic pretreatment detergent in Table 16, relative to initially added H2O2 = 2%, 37° C., pH 7): 90%
- Residual H2O2 (after storage) ([2]; nonionic/anionic pretreatment detergent in Table 16, relative to initially added H2O2 = 2%, 37° C., pH 9): 92%
- Residual activity after storage for 2 weeks at 30° C. (Subtilisin1 [3]; Subtilisin1 in “Mix Laundry” (Table 19, pH 7.5) no H2O2, no sodium salicylate, no polyDADMAC): 73%
- Residual activity after storage for 2 weeks at 30° C. (Subtilisin1 [3]; Subtilisin1 in “Mix Laundry” (Table 19, pH 7.5) with 1% H2O2, with sodium salicylate, with polyDADMAC): 42%
- Residual activity after storage for 2 weeks at 37° C. (Subtilisin1 [3]; Subtilisin1 in “NI pretreat” (Table 19, pH 7.0) with 1% H2O2, with sodium salicylate, with polyDADMAC): 38%
- Residual activity after storage for 2 weeks at 37° C. (Subtilisin1 [3]; Subtilisin1 in “NI pretreat” (Table 19, pH 7.0) without H2O2, no sodium salicylate, no polyDADMAC): 82%
- % Subtilisin residual activity after 4 weeks ([4]; 22° C.): 81%
- % Subtilisin residual activity after 4 weeks ([4]; 30° C.): 61%
- % Subtilisin residual activity after 4 weeks ([4]; 37° C.): 46%
- stability in the liquid peroxide composition, compared with Subtilisin2 ([4]; liquid peroxide composition in Table 1, summary of Table 2): much better
